This note sets out measurements from PMC5827114, “A cryptic RNA-binding domain mediates Syncrip recognition and exosomal partitioning of miRNA targets”.

Data set [1] concerns the target T1, Syncrip NURR domain (N) (Homo sapiens, UniProt O60506 16-109).
T1 sequence: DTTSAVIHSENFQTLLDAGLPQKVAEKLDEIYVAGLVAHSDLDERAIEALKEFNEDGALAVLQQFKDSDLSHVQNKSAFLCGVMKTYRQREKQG
In words: NMR; BLI: 5 mM Tris-HCl pH 7.4, 50 mM NaCl, 1 mM TCEP, 0.5 mg/mL BSA, 30 C; NMR: 5 mM Tris-HCl pH 7.4, 50 mM NaCl, 0.5 mM TCEP. The note with it: protein: recombinant; tags: His6-SUMO or His, removed by HRV 3C.

For data set [2], the target named is T2, Syncrip NeR1R2R3 (Homo sapiens, UniProt O60506 16-428).
T2 sequence: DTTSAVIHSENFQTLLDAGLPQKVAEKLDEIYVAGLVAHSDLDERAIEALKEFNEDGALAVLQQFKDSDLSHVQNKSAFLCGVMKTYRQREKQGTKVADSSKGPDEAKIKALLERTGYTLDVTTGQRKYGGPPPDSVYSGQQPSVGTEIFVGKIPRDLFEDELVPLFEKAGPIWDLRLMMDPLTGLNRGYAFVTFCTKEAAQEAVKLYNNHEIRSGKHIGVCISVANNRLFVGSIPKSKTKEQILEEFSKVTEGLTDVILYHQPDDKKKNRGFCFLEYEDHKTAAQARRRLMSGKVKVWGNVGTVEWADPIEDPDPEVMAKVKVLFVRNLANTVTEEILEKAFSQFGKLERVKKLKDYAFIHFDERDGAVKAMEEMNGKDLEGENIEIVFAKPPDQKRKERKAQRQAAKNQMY
In words: NMR; only NURR resonances shift; BLI: 5 mM Tris-HCl pH 7.4, 50 mM NaCl, 1 mM TCEP, 0.5 mg/mL BSA, 30 C; NMR: 5 mM Tris-HCl pH 7.4, 50 mM NaCl, 0.5 mM TCEP. To be noted: protein: recombinant; tags: His6-SUMO or His, removed by HRV 3C.

Data set [3] concerns the target T3, Syncrip NeR1 (Homo sapiens, UniProt O60506 16-242).
T3 sequence: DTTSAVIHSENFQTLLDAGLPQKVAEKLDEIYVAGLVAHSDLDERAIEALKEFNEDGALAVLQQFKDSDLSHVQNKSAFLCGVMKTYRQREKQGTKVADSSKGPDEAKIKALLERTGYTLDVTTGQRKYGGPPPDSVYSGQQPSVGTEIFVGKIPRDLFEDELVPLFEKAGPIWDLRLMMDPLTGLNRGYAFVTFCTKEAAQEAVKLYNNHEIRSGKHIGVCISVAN
In words: NMR; 50 uM protein, 1:1 and 1:2; BLI: 5 mM Tris-HCl pH 7.4, 50 mM NaCl, 1 mM TCEP, 0.5 mg/mL BSA, 30 C; NMR: 5 mM Tris-HCl pH 7.4, 50 mM NaCl, 0.5 mM TCEP. The note with it: protein: recombinant; tags: His6-SUMO or His, removed by HRV 3C.

The target in data set [4] is T4, Syncrip NeR1 R60A G97L (Homo sapiens, UniProt O60506 16-242, R60A;G97L).
T4 sequence: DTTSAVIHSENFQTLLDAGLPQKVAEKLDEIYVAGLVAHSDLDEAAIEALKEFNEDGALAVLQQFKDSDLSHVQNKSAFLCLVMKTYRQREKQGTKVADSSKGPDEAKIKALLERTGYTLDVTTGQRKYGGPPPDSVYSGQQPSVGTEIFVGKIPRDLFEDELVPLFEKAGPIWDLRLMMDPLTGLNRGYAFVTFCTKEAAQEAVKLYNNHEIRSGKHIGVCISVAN
Kind of data set: NMR; 50 uM protein, 1:1 and 1:2; legend: binding eliminated (text: impaired); BLI: 5 mM Tris-HCl pH 7.4, 50 mM NaCl, 1 mM TCEP, 0.5 mg/mL BSA, 30 C; NMR: 5 mM Tris-HCl pH 7.4, 50 mM NaCl, 0.5 mM TCEP. The note with it: protein: recombinant; tags: His6-SUMO or His, removed by HRV 3C.

In data set [5] the target is T1, Syncrip NURR domain (N). In words: BLI; BLI: 5 mM Tris-HCl pH 7.4, 50 mM NaCl, 1 mM TCEP, 0.5 mg/mL BSA, 30 C; NMR: 5 mM Tris-HCl pH 7.4, 50 mM NaCl, 0.5 mM TCEP. To be noted: protein: recombinant; tags: His6-SUMO or His, removed by HRV 3C; label: 5'-biotin.
In data set [6] the target is T2, Syncrip NeR1R2R3. Described as above. To be noted: protein: recombinant; tags: His6-SUMO or His, removed by HRV 3C; label: 5'-biotin.
Data set [7] addresses T2, Syncrip NeR1R2R3. The description is as above. The note with it: protein: recombinant; tags: His6-SUMO or His, removed by HRV 3C; label: 5'-biotin (BLI).

B1: hEXO-motif RNA (ssRNA)
RNA: AGGCU
Turning to B1, the binding result in data set [1] is on record as “binds”; in data set [2], “binds”; in data set [3], “binds”; in data set [4] it was “no binding”.

B2: 14mer miR-3470 (ssRNA)
RNA: GUAGACCAGGCUGG
B2: in data set [5], the Kd stood at 29 ± 2 µM.

B3: chimera miR-3470 (delta-hEXO mutant) (ssRNA)
RNA: UCACUUUGUAGACCAAGUGUU
As to B3, the “fold loss of affinity vs miR-3470 wild type” value in data set [6] was ~6 fold lower affinity than miR-3470 wild type.

B4: miR-3470 full-length (ssRNA)
RNA: UCACUUUGUAGACCAGGCUGG
Consider B4, for which the equilibrium dissociation constant (Kd) in data set [7] turned out to be 0.002 ± 0.0002 µM.
